From paper PMC9830397 (European Journal of Translational Myology, 2022) come the findings set out here.

This experiment addresses FITC-labelled human holo-transferrin (human, UniProt P02787 20-698, FITC label (position not given); holo form). Description: solid-phase fluorescence binding assay.

FITC-labelled human holo-transferrin, sequence (P02787 20-698): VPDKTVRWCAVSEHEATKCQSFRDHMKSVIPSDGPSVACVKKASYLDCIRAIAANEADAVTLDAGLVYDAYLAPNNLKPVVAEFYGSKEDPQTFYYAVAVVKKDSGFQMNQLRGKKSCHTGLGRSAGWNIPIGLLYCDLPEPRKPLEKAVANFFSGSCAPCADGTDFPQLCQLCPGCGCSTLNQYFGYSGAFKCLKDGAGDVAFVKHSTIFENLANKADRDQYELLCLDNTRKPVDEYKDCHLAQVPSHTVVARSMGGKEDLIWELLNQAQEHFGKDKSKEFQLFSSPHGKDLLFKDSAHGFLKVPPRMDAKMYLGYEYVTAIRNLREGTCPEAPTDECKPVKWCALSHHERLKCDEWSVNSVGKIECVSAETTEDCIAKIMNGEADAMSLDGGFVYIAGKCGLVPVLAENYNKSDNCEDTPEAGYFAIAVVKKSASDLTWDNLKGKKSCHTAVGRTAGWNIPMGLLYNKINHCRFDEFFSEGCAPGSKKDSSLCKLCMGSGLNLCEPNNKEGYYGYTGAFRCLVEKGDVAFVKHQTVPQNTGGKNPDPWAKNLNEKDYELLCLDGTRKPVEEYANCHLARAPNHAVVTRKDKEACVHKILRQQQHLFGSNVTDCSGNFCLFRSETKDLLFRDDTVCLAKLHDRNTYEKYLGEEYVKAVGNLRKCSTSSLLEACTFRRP

B1: immX3AVD (peptide)
peptide: KKGFYKKKQCRPSKGRKRGFCWAVD
modifications: biotinylated (position not given); labelled with streptavidin-Alexa 488 conjugate (SA488) in the nuclear receptor assay
For the molecule B1, the binding result is “binds”.
